Drawing on PMC2877719 (2010), this text covers Kd for 4 molecules.

No end group written: not given here. Some results are limits rather than exact numbers.

First the molecules themselves.
B1: hEAG1 BD-C1 (peptide)
chain: LRKRIVFRKI
modifications: also: fluorescent label, unspecified
B2: hEAG1 BD-N (peptide)
chain: FARLTRALTSSRGVL
modifications: also: fluorescent label, unspecified
B3: hEAG1 BD-C2 (peptide)
chain: RRLFQRFRQQK
modifications: also: fluorescent label, unspecified
B4: hEAG1 BD-C1 (peptide)
chain: LRKRIVFRKI
modifications: also: GST fusion

This experiment deals with calmodulin (Homo sapiens, UniProt P0DP23). Put plainly: FCS.
Consider B1, for which the Kd was determined as 327 nM. B2 yielded a Kd of 45 nM.

In turn, B3 came in with an equilibrium dissociation constant (Kd) of 223 nM. B4 gave a dissociation constant Kd of over 5000 nM.
